Results published in patent US9549967B2, “Regulation of sodium channels by PLUNC proteins” (The University of North Carolina at Chapel Hill, priority 2009, dated 2017).

T1: αβγENaC (Rattus norvegicus, UniProt P37089+P37090+P37091)
T1 construct: expressed in transfected cells; host or cells: Xenopus laevis oocytes (cRNA injection)
T1 sequence (P37089 1-698): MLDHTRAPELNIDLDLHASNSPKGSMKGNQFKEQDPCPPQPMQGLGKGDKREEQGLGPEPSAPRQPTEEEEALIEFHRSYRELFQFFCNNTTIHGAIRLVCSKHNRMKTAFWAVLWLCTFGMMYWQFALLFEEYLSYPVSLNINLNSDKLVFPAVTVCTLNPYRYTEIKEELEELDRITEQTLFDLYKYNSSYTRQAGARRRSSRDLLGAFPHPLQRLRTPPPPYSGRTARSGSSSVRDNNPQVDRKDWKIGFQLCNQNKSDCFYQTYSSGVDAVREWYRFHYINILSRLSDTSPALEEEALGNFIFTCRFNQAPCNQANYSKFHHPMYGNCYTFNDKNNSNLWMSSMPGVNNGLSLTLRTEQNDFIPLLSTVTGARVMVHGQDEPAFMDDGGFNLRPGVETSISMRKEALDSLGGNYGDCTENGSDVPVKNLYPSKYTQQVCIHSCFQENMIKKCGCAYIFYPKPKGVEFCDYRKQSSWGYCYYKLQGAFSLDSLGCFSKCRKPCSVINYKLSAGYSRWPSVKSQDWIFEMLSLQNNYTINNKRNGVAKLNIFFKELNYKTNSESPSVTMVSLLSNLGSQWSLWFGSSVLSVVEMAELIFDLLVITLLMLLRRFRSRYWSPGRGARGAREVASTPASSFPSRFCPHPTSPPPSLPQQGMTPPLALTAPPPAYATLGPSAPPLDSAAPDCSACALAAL
T1 sequence (P37090 1-638): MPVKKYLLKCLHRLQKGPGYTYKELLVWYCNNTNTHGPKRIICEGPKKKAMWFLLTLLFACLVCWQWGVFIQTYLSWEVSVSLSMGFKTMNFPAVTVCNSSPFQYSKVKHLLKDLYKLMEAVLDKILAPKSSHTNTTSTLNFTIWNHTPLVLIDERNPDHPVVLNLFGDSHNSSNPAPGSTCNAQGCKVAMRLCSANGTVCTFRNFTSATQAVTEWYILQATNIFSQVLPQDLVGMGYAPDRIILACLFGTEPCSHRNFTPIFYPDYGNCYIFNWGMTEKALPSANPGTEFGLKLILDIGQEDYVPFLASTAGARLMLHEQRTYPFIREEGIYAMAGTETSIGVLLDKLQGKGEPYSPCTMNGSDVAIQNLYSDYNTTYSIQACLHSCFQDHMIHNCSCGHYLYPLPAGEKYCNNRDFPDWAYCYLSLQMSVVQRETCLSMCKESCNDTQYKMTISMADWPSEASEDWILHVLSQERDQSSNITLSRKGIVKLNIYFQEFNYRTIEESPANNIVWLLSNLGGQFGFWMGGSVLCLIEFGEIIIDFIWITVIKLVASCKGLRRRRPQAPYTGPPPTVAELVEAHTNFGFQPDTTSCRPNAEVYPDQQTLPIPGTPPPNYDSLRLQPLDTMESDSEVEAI
T1 sequence (P37091 1-650): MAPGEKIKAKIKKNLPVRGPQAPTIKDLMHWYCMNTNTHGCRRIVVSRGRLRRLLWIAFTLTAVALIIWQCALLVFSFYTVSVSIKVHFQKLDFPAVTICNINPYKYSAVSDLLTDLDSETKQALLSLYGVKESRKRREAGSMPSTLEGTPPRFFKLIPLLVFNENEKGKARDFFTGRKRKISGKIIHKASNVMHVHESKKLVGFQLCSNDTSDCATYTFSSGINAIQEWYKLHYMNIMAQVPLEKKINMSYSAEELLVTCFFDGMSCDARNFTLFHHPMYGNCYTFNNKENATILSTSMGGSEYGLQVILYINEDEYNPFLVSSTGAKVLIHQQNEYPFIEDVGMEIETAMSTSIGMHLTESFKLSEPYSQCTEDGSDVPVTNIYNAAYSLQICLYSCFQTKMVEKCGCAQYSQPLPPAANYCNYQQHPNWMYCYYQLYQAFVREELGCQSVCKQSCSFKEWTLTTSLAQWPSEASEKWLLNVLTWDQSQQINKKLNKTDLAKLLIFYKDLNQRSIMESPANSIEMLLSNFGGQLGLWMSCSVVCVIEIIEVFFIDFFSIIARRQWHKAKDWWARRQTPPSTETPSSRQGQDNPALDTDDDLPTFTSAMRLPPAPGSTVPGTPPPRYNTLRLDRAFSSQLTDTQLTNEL

B1: SPLUNC1: human SPLUNC1, 256 amino acid secreted PLUNC protein (SEQ ID NO:1); rSPLUNC1 = V5/6His-tagged protein purified from HEK293 media (protein, listed as Homo sapiens)
chain: MFQTGGLIVFYGLLAQTMAQFGGLPVPLDQTLPLNVNPALPLSPTGLAGSLTNALSNGLLSGGLLGILENLPLLDILKPGGGTSGGLLGGLLGKVTSVIPGLNNIIDIKVTDPQLLELGLVQSPDGHRLYVTIPLGIKLQVNTPLVGASLLRLAVKLDITAEILAVRDKQERIHLVLGDCTHSPGSLQISLLDGLGPLPIQGLLDSLTGILNKVLPELVQGNVCPLVNEVLRGLDITLVHDIVNMLIHGLQFVIKV
modifications: V5/6His tag
notes: rSPLUNC1 = V5/6His-tagged protein purified from HEK293 media

Target: T1, αβγENaC
Assay: Amiloride-sensitive whole cell current in Xenopus laevis oocytes expressing ENaC (two electrode voltage clamp)
Format: cell-based
Description: Oocyte studies. Xenopus laevis oocytes were harvested and injected as described (Donaldson, et al., J. Biol. Chem. 277:8338 (2002)). Defolliculated healthy stage V-VI oocytes were injected with 0.3 ng of cRNA of each ENaC subunit. Injected oocytes were kept in modified Barth's saline (in mM: 88 NaCl, 1 KCl, 2.4 NaHCO3, 0.3 Ca(NO3)2, 0.41 CaCl2, 0.82 MgSO4, and 15 HEPES, adjusted to pH 7.35 with Tris). Oocytes were studied 24 hr after injection using the two electrode voltage clamp technique as previously described (Donaldson, et al., J. Biol. Chem. 277:8338 (2002)). Oocytes were clamped at a holding potential of […]. The change in amiloride-sensitive whole cell current as an indicator of ENaC activity was determined by subtracting the corresponding current value measured in the presence of 10 μM amiloride from that measured before the application of amiloride.

| Molecule | ENaC activity on trypsin exposure (oocytes) | ability of CAP1 and CAP2 to activate ENaC (ENaC ± SPLUNC1 co-expressed with prostasin (CAP1) and CAP2) | inhibition of ENaC by full-length and truncated SPLUNC1 (oocyte current inhibition assay, pH 7.4, all p<0.0001) | trypsin stimulation of ENaC activity (trypsin-exposed oocytes ± SPLUNC1) |
| --- | --- | --- | --- | --- |
| trypsin [reference compound] | increased ENaC activity |  |  |  |
| B1 |  | significantly reduced | Significant inhibition | attenuated |
